The text below walks through data of the supplement of paper PMC5998384.

For the data set, the system named is HeLa Kyoto. The data set can be described thus: melting temperature (median over replicates), in situ; higher = more thermally stable.
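Further: HeLa Kyoto cells synchronized by double thymidine or nocodazole block, proteins quantified by TMT10plex mass spectrometry, three independent biological replicates.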

“MAAAAAGLGGGGAGPGPEAGDFLARYRLVSNKLKKRFLRKPNVAEAGEQFGQLGRELRAQECLPYAAWCQLAVARCQQALFHGPGEALALTEAARLFLRQERDARQRLVCPAAYGEPLQAAASALGAAVRLHLELGQPAAAAALCLELAAALRDLGQPAAAAGHFQRAAQLQLPQLPLAALQALGEAASCQLLARDYTGALAVFTRMQRLAREHGSHPVQSLPPPPPPAPQPGPGATPALPAALLPPNSGSAAPSPAALGAFSDVLVRCEVSRVLLLLLLQPPPAKLLPEHAQTLEKYSWEAFDSHGQESSGQLPEELFLLLQSLVMATHEKDTEAIKSLQVEMWPLLTAEQNHLLHLVLQETISPSGQGV [F8A1]” registered a melting temperature (cell cycle stage: mitosis) of 50.9 °C.

With “MAAAELADTQLMLGVGLIEKDTNGEVLWVWCYPSTTATLRNLLLRKCCLTDENKLLHPFVFGQYRRTWFYITIIEVPDSSILKKVTHFSIVLTAKDFNPEKYAAFTRILCRMYLKHGSPVKMMESYIAVLTKGICQSEENGSFLSKDFDARKAYPAGSIKDIVSQFGMETVILHTALMLKKRIVVYHPKIEAVQEFTRTLPALVWHRQDWTILHSYVHLNADELEALQMCTGYVAGFVDLEVSNRPDLYDVFVNLAESEITIAPLAKEAMAMGKLHKEMGQLIVQSAEDPEKSESQVIQDIALKTREIFTNLAPFSEVSADGEKRVLNLEALKQKRFPPATENFLYHLAAAEQMLKI [FAM45BP]”, the melting temperature came to 50.6 °C (cell cycle stage: G1/S) and 50.5 °C (cell cycle stage: mitosis).

“MAAEADGPLKRLLVPILLPEKCYDQLFVQWDLLHVPCLKILLSKGLGLGIVAGSLLVKLPQVFKILGAKSAEGLSLQSVMLELVALTGTMVYSITNNFPFSSWGEALFLMLQTITICFLVMHYRGQTVKGVAFLACYGLVLLVLLSPLTPLTVVTLLQASNVPAVVVGRLLQAATNYHNGHTGQLSAITVFLLFGGSLARIFTSIQETGDPLMAGTFVVSSLCNGLIAAQLLFYWNAKPPHKQKKAQ [MPDU1]” came in with a melting temperature (cell cycle stage: G1/S) of 59.2 °C and a melting temperature (cell cycle stage: mitosis) of 59.2 °C.

Take “MAEEEGPPVELRQRKKPKSSENKESAKEEKISDIPIPERAPKHVLFQRFAKIFIGCLAAVTSGMMYALYLSAYHERKFWFSNRQELEREITFQGDSAIYYSYYKDMLKAPSFERGVYELTHNNKTVSLKTINAVQQMSLYPELIASILYQATGSNEIIEPVYFYIGIVFGLQGIYVTALFVTSWLMSGTWLAGMLTVAWFVINRVDTTRIEYSIPLRENWALPYFACQIAALTGYLKSNLNTYGERFCYLLMSASTYTFMMMWEYSHYLLFLQAISLFLLDTFSVEQSDKVYEVYKIYIFSLFLGYLLQFENPALLVSPLLSLVAALMLAKCLQLNVKKGSFVAKIIKVINFYLVCTLTITLNIIMKMFVPHKENGHMLKFLEVKFGLNMTKNFTMNWLLCQESLQAPSQDFFLRLTQSSLLPFYILVLIICFLSMLQVIFRRINGKSLKETVTLEDGRIGERPEIIYHVIHTILLGSLAMVIEGLKYIWIPYVCMLAAFGVCSPELWMTLFKWLRLRTVHPILLALILSMAVPTIIGLSLWKEFFPRLMTELMELQEFYDPDTVELMTWIKRQAPVAAVFAGSPQLMGAIKLCTGWMVTSLPLYNDDDLLKRNENIYQIYSKRSAEDIYKILTSYKANYLIVEDAICNEVGPMRGCRVKDLLDIANGHMVCEEGDKLTYSKYGRFCHEVKINYSPYVNYFTRVYWNRSYFVYKINTVISFQS [DPY19L4]”: the melting temperature (cell cycle stage: G1/S) is 54.5 °C and the melting temperature (cell cycle stage: mitosis) was determined as 56.9 °C.

Take “MAEEMESSLEASFSSSGAVSGASGFLPPARSRIFKIIVIGDSNVGKTCLTYRFCAGRFPDRTEATIGVDFRERAVEIDGERIKIQLWDTAGQERFRKSMVQHYYRNVHAVVFVYDMTNMASFHSLPSWIEECKQHLLANDIPRILVGNKCDLRSAIQVPTDLAQKFADTHSMPLFETSAKNPNDNDHVEAIFMTLAHKLKSHKPLMLSQPPDNGIILKPEPKPAMTCWC [RAB33B]”: the melting temperature is, setting by setting: (cell cycle stage: G1/S) 54.3 °C; (cell cycle stage: mitosis) 55 °C.

Regarding “MAELQMLLEEEIPGGRRALFDSYTNLERVADYCENNYIQSADKQRALEETKAYTTQSLASVAYLINTLANNVLQMLDIQASQLRRMESSINHISQTVDIHKEKVARREIGILTTNKNTSRTHKIIAPANLERPVRYIRKPIDYTILDDIGHGVKWLLRFKVSTQNMKMGGLPRTTPPTQKPPSPPMSGKGTLGRHSPYRTLEPVRPPVVPNDYVPSPTRNMAPSQQSPVRTASVNQRNRTYSSSGSSGGSHPSSRSSSRENSGSGSVGVPIAVPTPSPPSVFPAPAGSAGTPPLPATSASAPAPLVPATVPSSTAPNAAAGGAPNLADGFTSPTPPVVSSTPPTGHPVQFYSMNRPASRHTPPTIGGSLPYRRPPSITSQTSLQNQMNGGPFYSQNPVSDTPPPPPPVEEPVFDESPPPPPPPEDYEEEEAAVVEYSDPYAEEDPPWAPRSYLEKVVAIYDYTKDKEDELSFQEGAIIYVIKKNDDGWYEGVMNGVTGLFPGNYVESIMHYSE [ABI2]”, the melting temperature reads like this: (cell cycle stage: G1/S) 52.3 °C; (cell cycle stage: mitosis) 52.5 °C.

Regarding “MAGAGPTMLLREENGCCSRRQSSSSAGDSDGEREDSAAERARQQLEALLNKTMRIRMTDGRTLVGCFLCTDRDCNVILGSAQEFLKPSDSFSAGEPRVLGLAMVPGHHIVSIEVQRESLTGPPYL [NAA38]”, the melting temperature reads like this: (cell cycle stage: G1/S) 52.1 °C; (cell cycle stage: mitosis) 52.4 °C.

Take “MAPRGRKRKAEAAVVAVAEKREKLANGGEGMEEATVVIEHCTSURVYGRNAAALSQALRLEAPELPVKVNPTKPRRGSFEVTLLRPDGSSAELWTGIKKGPPRKLKFPEPQEVVEELKKYLS [C11ORF31]”: the melting temperature (cell cycle stage: mitosis) is 52.2 °C.

In the case of “MASRWWRWRRGCSWKPAARSPGPGSPGRAGPLGPSAAAEVRAQVHRRKGLDLSQIPYINLVKHLTSACPNVCRISRFHHTTPDSKTHSGEKYTDPFKLGWRDLKGLYEDIRKELLISTSELKEMSEYYFDGKGKAFRPIIVALMARACNIHHNNSRHVQASQRAIALIAEMIHTASLVHDDVIDDASSRRGKHTVNKIWGEKKAVLAGDLILSAASIALARIGNTTVISILTQVIEDLVRGEFLQLGSKENENERFAHYLEKTFKKTASLIANSCKAVSVLGCPDPVVHEIAYQYGKNVGIAFQLIDDVLDFTSCSDQMGKPTSADLKLGLATGPVLFACQQFPEMNAMIMRRFSLPGDVDRARQYVLQSDGVQQTTYLAQQYCHEAIREISKLRPSPERDALIQLSEIVLTRDK [PDSS1]”, the melting temperature (cell cycle stage: mitosis) came out at 51.7 °C.

In turn, “MEALLLGAGLLLGAYVLVYYNLVKAPPCGGMGNLRGRTAVVTGANSGIGKMTALELARRGARVVLACRSQERGEAAAFDLRQESGNNEVIFMALDLASLASVRAFATAFLSSEPRLDILIHNAGISSCGRTREAFNLLLRVNHIGPFLLTHLLLPCLKACAPSRVVVVASAAHCRGRLDFKRLDRPVVGWRQELRAYADTKLANVLFARELANQLEATGVTCYAAHPGPVNSELFLRHVPGWLRPLLRPLAWLVLRAPRGGAQTPLYCALQEGIEPLSGRYFANCHVEEVPPAARDDRAAHRLWEASKRLAGLGPGEDAEPDEDPQSEDSEAPSSLSTPHPEEPTVSQPYPSPQSSPDLSKMTHRIQAKVEPEIQLS [DHRS13]” registered a melting temperature (cell cycle stage: mitosis) of 50 °C.

As for “MEEKQILCVGLVVLDVISLVDKYPKEDSEIRCLSQRWQRGGNASNSCTVLSLLGAPCAFMGSMAPGHVADFLVADFRRRGVDVSQVAWQSKGDTPSSCCIINNSNGNRTIVLHDTSLPDVSATDFEKVDLTQFKWIHIEGRNASEQVKMLQRIDAHNTRQPPEQKIRVSVEVEKPREELFQLFGYGDVVFVSKDVAKHLGFQSAEEALRGLYGRVRKGAVLVCAWAEEGADALGPDGKLLHSDAFPPPRVVDTLGAGDTFNASVIFSLSQGRSVQEALRFGCQVAGKKCGLQGFDGIV [KHK]”, the melting temperature (cell cycle stage: G1/S) came out at 54.2 °C.

As for “MFSLPLNCSPDHIRRGSCWGRPQDLKIAAPAWNSKCHPGAGAAMARQHARTLWYDRPRYVFMEFCVEDSTDVHVLIEDHRIVFSCKNADGVELYNEIEFYAKVNSKPVWLSVDFDNWRDWEGDEEMELAHVEHYAELLKKVSTKRPPPAMDDLDDDSDSADDATSN [PTGES3L]”, the melting temperature runs as follows: (cell cycle stage: G1/S) 49.8 °C; (cell cycle stage: mitosis) 49.9 °C.

Sequence “MGDMANSSIEFHPKPQQQRDVPQAGGFGCTLAELRTLMELRGAEALQKIEEAYGDVSGLCRRLKTSPTEGLADNTNDLEKRRQIYGQNFIPPKQPKTFLQLVWEALQDVTLIILEVAAIVSLGLSFYAPPGEESEACGNVSGGAEDEGEAEAGWIEGAAILLSVICVVLVTAFNDWSKEKQFRGLQSRIEQEQKFTVIRNGQLLQVPVAALVVGDIAQVKYGDLLPADGVLIQANDLKIDESSLTGESDHVRKSADKDPMLLSGTHVMEGSGRMVVTAVGVNSQTGIIFTLLGAGGEEEEKKDKKGKQQDGAMESSQTKAKKQDGAVAMEMQPLKSAEGGEMEEREKKKANAPKKEKSVLQGKLTKLAVQIGKAGLVMSAITVIILVLYFVIETFVVEGRTWLAECTPVYVQYFVKFFIIGVTVLVVAVPEGLPLAVTISLAYSVKKMMKDNNLVRHLDACETMGNATAICSDKTGTLTTNRMTVVQSYLGDTHYKEIPAPSALTPKILDLLVHAISINSAYTTKILPPEKEGALPRQVGNKTECALLGFVLDLKRDFQPVREQIPEDKLYKVYTFNSVRKSMSTVIRMPDGGFRLFSKGASEILLKKCTNILNSNGELRGFRPRDRDDMVRKIIEPMACDGLRTICIAYRDFSAGQEPDWDNENEVVGDLTCIAVVGIEDPVRPEVPEAIRKCQRAGITVRMVTGDNINTARAIAAKCGIIQPGEDFLCLEGKEFNRRIRNEKGEIEQERLDKVWPKLRVLARSSPTDKHTLVKGIIDSTTGEQRQVVAVTGDGTNDGPALKKADVGFAMGIAGTDVAKEASDIILTDDNFTSIVKAVMWGRNVYDSISKFLQFQLTVNVVAVIVAFTGACITQDSPLKAVQMLWVNLIMDTFASLALATEPPTESLLLRKPYGRDKPLISRTMMKNILGHAVYQLAIIFTLLFVGELFFDIDSGRNAPLHSPPSEHYTIIFNTFVMMQLFNEINARKIHGERNVFDGIFSNPIFCTIVLGTFGIQIVIVQFGGKPFSCSPLSTEQWLWCLFVGVGELVWGQVIATIPTSQLKCLKEAGHGPGKDEMTDEELAEGEEEIDHAERELRRGQILWFRGLNRIQTQIRVVKAFRSSLYEGLEKPESKTSIHNFMATPEFLINDYTHNIPLIDDTDVDENEERLRAPPPPSPNQNNNAIDSGIYLTTHVTKSATSSVFSSSPGSPLHSVETSL [ATP2B3]” gave a melting temperature (cell cycle stage: G1/S) of 54.2 °C.

Turning to “MGKEKTHINIVVIGHVDSGKSTTTGHLIYKCGGIDKRTIEKFEKEAAEMGKGSFKYAWVLDKLKAERERGITIDISLWKFETSKYYVTIIDAPGHRDFIKNMITGTSQADCAVLIVAAGVGEFEAGISKNGQTREHALLAYTLGVKQLIVGVNKMDSTEPPYSQKRYEEIVKEVSTYIKKIGYNPDTVAFVPISGWNGDNMLEPSANMPWFKGWKVTRKDGNASGTTLLEALDCILPPTRPTDKPLRLPLQDVYKIGGIGTVPVGRVETGVLKPGMVVTFAPVNVTTEVKSVEMHHEALSEALPGDNVGFNVKNVSVKDVRRGNVAGDSKNDPPMEAAGFTAQVIILNHPGQISAGYAPVLDCHTAHIACKFAELKEKIDRRSGKKLEDGPKFLKSGDAAIVDMVPGKPMCVESFSDYPPLGRFAVRDMRQTVAVGVIKAVDKKAAGAGKVTKSAQKAQKAK [EEF1A1]”, the melting temperature was 52.4 °C (cell cycle stage: G1/S) and 52.4 °C (cell cycle stage: mitosis).

For “MGLELFLDLVSQPSRAVYIFAKKNGIPLELRTVDLVKGQHKSKEFLQINSLGKLPTLKDGDFILTESSAILIYLSCKYQTPDHWYPSDLQARARVHEYLGWHADCIRGTFGIPLWVQVLGPLIGVQVPEEKVERNRTAMDQALQWLEDKFLGDRPFLAGQQVTLADLMALEELMQPVALGYELFEGRPRLAAWRGRVEAFLGAELCQEAHSIILSILEQAAKKTLPTPSPEAYQAMLLRIARIP [GSTT2B]”, the melting temperature reads like this: (cell cycle stage: G1/S) 54.9 °C; (cell cycle stage: mitosis) 55.1 °C.
